Reference: a protein production outcome set (Wang et al. 2014)

Test: label from the status in PepcDB records

Protein production, not failed:
MTIAQEPTALNFECETGNYHTFCPISCVAWLYQKIEDSFFLVIGTKTCGYFLQNAMGVMIFAEPRYAMAELEEGDISAQLNDYAELKRLCEQIKRDRNPSVIVWIGTCTTEIIKMDLEGLAPKLEGEIGIPIVVARANGLDYAFTQGEDTVLAAMAHRCPDKAPVAEAEKNLEHHHHHH
MTIDDMSLVVGMYGNYEVTKTGNLVGILEVSGINLDLLNETEQQDVFEDYGAFLMSTLGEGVDDTLQFLEPTIPVNMTTYLNGLKRRYLALQKDHPEQQFKIQLIASYLDHFTKVQESKNMTTKQHLLIVKVPIKDKSAESLNLAVAHLDEKIEQVKRDIENALTDFDVTAKILTSQEVQEILKNLINFNGLEHHHHHH
MTIMLTPMQTEEFRSYLTYTTKHYAEEKVKAGTWLPEDAQLLSKQVFTDLLPRGLETPHHHLWSLKLNEKDIVGWLWIHAEPEHPQQEAFIYDFGLYEPYRGKGYAKQALAALDQAARSMGIRKLSLHVFAHNQTARKLYEQTGFQETDVVMSKKL
MTIPTSYLNHTDAEAARKARATYRDGLVAPTSGIAPGFTQANMIVLPRDWAFDFLLYAQRNPKPCPVLDVSDPGSPTTLLAPGADLRTDLPLYRIWRDGKLAEETADATSAWAERDDLVAFLIGCSFTFETPMVEAGIEIRHMTDKSNVPMYLTNRPCRPAGRLKGNMVVSMRPIPASRVADAATISGRFPAVHGAPVHVGAPEQIGISDLSKPDFGDAVRIEPGEVPVFWACGVTPQAAVMASGVPFAITHAPGHMFITDIPDTAYHALEHHHHHH
MTITNSKAEAWELIGNQFWTIGRVAARPSDRENDIFLENIVPGSTVAVIGASTRFLIEKALERGASVTVFDFSQRMCDDLAEALADRCVTIDLLDITAEIPKELAGHFDFVLNDRLINRFTTEEARRACLGMLSLVGSGTVRASVKLGFYDIDLKLIEYGEQSGTLAKFFDPSDKTFHFREAGDVLDRALVPHGLIDKPTLLEWYRRRGKETRFDDEDVRALLSHDVVNARGYVTLEKAVELPDAPNTMLYQFSRRAG
MTKANWTLSDARDTYAIEHWSDGYFNIAPEGEVVVCPQRGSVEGGVSIAAIARGVRAEGLSLPVLMRFPHILHDRVRLLTSAFGKARAAYHYGAGYTPVYPIKVNQQRNVIENILRAGGVGLEAGSKSELLAILALAESGTIICNGYKDRAYIRLALIGSRLGLRVFIVVEKLSELELVVSESEALGIAPQLGVRIRLSSISAGKWQNSGGEKSKFGLHAGEILKFLKRLERAGGLGWVRLMHFHMGSQVANINDVKTALREASRYYAELRRLGAPVDHVDVGGGLGIDYEGTHSVSDCSINYSVDEYAHSIVRAFSELCAEQGLPQPDLITEAGRAMSAHHAVLVTNVVDIEAATYDASPVSASVAQPLKDLEDLLRRVDSESVLGIYHDAEFDLAETRTMYVQGKIGLDQLAEAERLHATLCREVQQRLDIRLRAHRAVLDELNERLADKLFCNFSVFQSIPDAWAIDQIFPVMPLQRLGEEPTRRAVIQDMTCDSDGRINAYIDRQSIENTLRMHAPAPGEPYLIGFFLVGAYQEILGDMHNLFGDTHSVDVELDGAGGYTFTHTRRGDGADDLLRYVHIDPDELERSYRKKLIEADIPMHQRKQYESELIAGLSNYTYLEELEHHHHHH

Protein production, failed:
MTIAEIRKFAQTTQKFVEAENLFEHGNVVLPKKYLNKARGMAEVLYNSQVIKVSFTAKDGELTCKCSCLANVDNCVHIVAVLLKYHQMLVESKRSFNLAEAFHLDCDQAEMLIENLSLEIIAGGNFKLGFTINLDKHNPQPSVLRFYCCDATFVYFLHLENDTLHSVELSKFKPEERATLLFFDKLCKQFTVGYDRNSLLFPLAGFLKELQANTEPTIFVFNDDKIDNILFLRISKKHHGLNHVCGFSGKKVFDFVTYKQKEKQIVLRSAYLSKFTDFKFPYTINIYKLQFGEPLFFYFLIQLKRDGFKNFYFQSEDSIVKEKEYLPKLYFKVEYDPVKNKFVSDAFFKYKNHFNKGTTTVYPHRYYMAKKSDRGGFNRLLFYEEAVENFYQDQFDLGYFRKFEHLPIQDKNQIEAFKAALDDLMPVDLAEVSLSDNLLHQKPLHFALSDLEAVAVDDKQIKLSFAPSAVELKLIKRILSAYHKGNVVCIDQESWYDLKQPAAKELIQFNQFDLRNATSDGNHIYLPKYYLFEVAKIFSQYLDIKNLFDVPTIKKIEDQNNNVFDLSLEHKKITSLRNYQQEGVKIRGLEENKFGGILADEMGLGKTVQVIFALLDSYLKNHVNLPSLIIVPASLLLNKSEFEKFAPQIKVKVANIPSKERGELYEKLTNEILIVSFNVLRSDVKLITKQRFHYVVIDEAQGIKNDSSSITKAAKKVKGNFCLALTGTPIENRLLDLSCFDFVLPSFLGNKKQFTDQFEKEKTDQSFHLLMQRTSPFILRRTKSKVLKELPNKITTDIYVELNPMHQKLYEEERDRGLEEIKQIQDKSSFNILTLILKLRHLCSLPKNSQGILENSAKKEAALEIIHEAIENQRKIILFTQFIDVIDHFKDTFKEQGIEYFIFDGRKSPKSRHSIIEKFNNAKNPCVLLASLKAGGVGINLTAAEVVIHFDVWNTAVENQATDRAHRIGQKKTVQVYRIIAKNTIEERVCQVQAEKQELVSKTLVEDVNFFESLTNEELLRLFE
MTIFEKNVIEFVTVAAEFCAFLERAEHMKRKAFVDTSLKILPLLYLKASLLPKCETIGDEAPETYVTEEIYEILRINLAGLMGEKDDYLDVFVQDMVYSDQPIKKSVSEDLADIYQDIKDFIFVFQLGLNETMNDSLAICQENFGLLWGQKLVNTLRALHDVKYLEHHHHHH
MTIHDNTLFSADERSRFLSSYASLIRTLAPDRQLVKKVRSLLSRFTELGCFDRDKNGMHGLLRNMEVARIASCEIGLGIEAIGALLFYRPAMKGLTRPEEIAELMGEDVARLIDLLLKTSEIYMRNTAINTANFEHFLLSIAEDIRVVLLIIADRSYLLRQAKDMVCAEERTALAAEVSYLYAPLAHRLGLYAIKSEMEDLCLKYTDRQTFDFIKRKLGETKRSRDAYIEAFIAPLRRRLDEALPNIPYEMKGRTKSINSIRNKLRQQGIEFESIYDLFAIRIILDVPVKDEKAACWHVYSIITDMYQPNPQRMKDWISIPKSNGYESLHVTVMGPQNRWVEVQIRSRRMDEVAERGLAAHWKYKGIKSESGLDEFLTSVRETLEARDHSSDDSAETVKNFKMNLFTDEIYAFTPTGELIKLPQGASVLDFAFAIHSRIGCQAVGANVNGKNVPLKHKLENGDSVSIITSAQQTPKKDWLSYVVSSKARNKIKQQLRLQMESSIGVVKELLNRRLKNRKLPFEEAVFTRVVRRKGFKHLTDFYMEIAADRLDVQEVLELYSHELEEEQRRDAGSGAARRSADTFVAHPPKEEEIVKGGKSDVLVIDNNMTGVEYSFGKCCNPIYGDSVFGFVSNSGIKIHRTDCPNAPDMFSRYGYRIIEARWSGKGSTGYEATLHVIGQDNLAIVTNITSVINKEPGVSLRAYSINSKDNLFEGVFTVEVPDTSTLSILLRKIRATHGVKSAERH
MTIKIALLGFGTVAKGIPYLLKENQHKLLSLEGEDIVIDKVLVRDNESRQRFINQGFTYNFVTEINTILQDSQIDIVVELMGGIEPAKTYLSQALGFGKHIVTANKDLIALHGKELMDLADARGLALFYEGAVAGGIPILRTLSHSFASDKMTRLLGILNGTSNFMLTKMFEEGWSYEQALKKAQELGYAESDPTNDVEGIDTAYKATILSQFGFGMPIDFDDVNYKGISSIRSEDVEVAQEMGFAIKLVADLRETPTGISVDVSPTLISQKHPLAAVNHVMNAVFIESIGIGQSLFYGPGAGQNPTATSVLADIIDISRSIRSQIKIKPMNTYHCPCRLSMQSDIFNEYYLAISLRNAEDSDTLGRYFEQENIGLKNVIEKALGDKQQEIYVLTDEVSQEKITQFIEEFPESGVIQLINVFKVIGG
MTILENIRGPRDLKALSEAELGELSDEIRDFLVHAVARTGGHLGPNLGVVELTVALHRVFESPDDRILWDTGHQSYVHKLLTGRQDFSKLRSKGGLSGYPSREESAHDVIENSHASTVLGWADGLAKARQVQGERSHVVAVIGDGALTGGMAWEALNNIAAARDRPLIIVVNDNERSYAPTIGGLANHLATLRTTDGYERALAWGKDVLQRTPVVGHTVYEALHGAKKGFKDAFAPQGLFEDLGLKYLGPIDGHDIGAVESALRRAKRFHGPVLVHCLTEKGRGYEPALRDEEDHFHTVGVMDPLTCEPLGPAGGPSWTSVFGEEIVRIGEERADVVAITAAMLHPVGLAPFAERFPDRVWDVGIAEQHAAVSAAGLATGGLHPVVAVYATFLNRAFDQLLMDVALHRCGVTFVLDRAGVTGVDGASHNGMWDMSVLQVVPGLRIAAPRDADQLRTQLREAVAVDDAPTLLRFPKESVGPAVPAVDRIGGLDVLHTADRSEVLLVAVGVMAPVCLGAAELLEARGIGCTVVDPRWVKPVDPALAPLAARHRLVAVVEDNSRAAGVGSAVALALGDAEVDVPVRRFGIPEQFLAHAKRAEVLADIGLTPVDVAGRIAASLALAEPAGDRAGGPAVEQPGDGRMSGDGRIVMPAQGEN
MTIPLIIGGVLLAILILLILVFITKYRTVGPDEALIVTGNWLGGGKNVVTTDDGKKIKIIRGGGTFVVPIMQRAEPLSLLNYKLEVGTRDTYTKQGVPVTVNGVSIIKVGSTIEEVSTAAEQYLGKETEELKVEAKEVLEGHLRAILSSMTVEDAYSNREQFAQKVHEVASTDLKKMGLRIVSFTIKEIMDKNGYLDALGQPQIATVKRDATIANAEREKEARIEKARAEKEAKEAEYQRDAQIAEAEKHKELKVQSYKREQEQARADADLSYELQQAKAQQGVTEEQMRVKIIEREKQIELEEKEIARREKQYDAEVKKKADADRYAVEQSAEAEKVKQIKKADADQYKIEAEARARAEEVRVEGLAKAEIEKAQGQAKAEVQKAQGTAEADVIRLKGLAEAEAKQKIAEAFELYGQAAIMDMVLKMLPSYAKEVASPLSNIDKITVVDTGGGGKNSGAGKVAGYATDLMATMQETLKASSGIDLKELLEGFAGKGAVQQLSSDKPVVSVVEDEKKEVEKDKELEHHHHHH
MTIRISGKSISIGEALRSRVSERTEEVLRKYFDGNYSGHFTLSKDGFGFRTDCALHLDSGITLEAESNAADAYVSADQALVQIEKRLRRYKSRLKDRSSRKAHAEANALAELSTPVDAASYVIEAPGDEEHHEDAYNPVIIAEATTAMKRLSVSEAVVELDLTGAPVVVFLHGSSGRVNIIYRRADGNIGWIDPPVLNGAN
MTIVWRDCFCVRSHSSNGLFMDVENNTAFWITGYQEARLGPVPEPTFPASETPYVIVRSRYSGISRGTESLVYNNQVPENEYQRMRAPFQEGEFPFPVKYGYASVGEVVDGPEALLGRNVFCLYPHQQRYAVPASAVLPLPAKVPAERAVLAANMETAVNGVWDGQPAVGDRIAVIGLGVVGLLVAWLVNRIPGVELIGVDTNEGRRSVAQALGVRFTTEPDIQNCDLVFHASGHPSGLAKALSLAGTDARVIELSWYGDTPVSVPLGHAFHPNRLTLKSSQVGQLSPERRPRWHHRRRLELALSMLSEPALDALISGESRFEQLPQVAGNILMPGADALCHRIVY
MTKHRWSPVSSPPSRKPENVQVINLLPVAAGIIAILLALSFFGQVGAALLAITLALILATALNPVARWLERWMPRPAAGALTVLLVVLALVLLGLVAVPPLVSQGSKLTSSLPTSIPELEAQINALIDRYPAINSVLTEASVHRLIQQAGSFAANAAKGLPNIVSTFVGGVFMGLVMLVMVVFVLSNPVPLVNGVLGAVPPRHRLPAARALAQILKQLGGWGRATVLVMLVTGSCTALGLMLLKVDNWLIFGILAALGELVPNIGPIVATIPSVLFAAADDPQKGLYVALFVLVFQQVSGFVLGPFLLGGAGKLHPLSVTVGVLLFGSVFGIVGAFLTVPFLIIIKAIYQEFYLQDAPDIPDAVAMALISGKVEEQLDREEEQREAIDGQLQAARDEELQRQLEEGDLDLAAVLEHPESEPGNETTVEHSQTVISPTAQNPEQK
